Reference: PMC11302882, “tRF-27 competitively Binds to G3BPs and Activates MTORC1 to Enhance HER2 Positive Breast Cancer Trastuzumab Tolerance”

Legend:
[1] = target: T1, HA-G3BP2 lacking NTF2 domain (UniProt Q9UN86 1-10+134-482, internal_change); assay: EMSA; not stated; BeyoMag Chemiluminescent RNA EMSA Kit per manufacturer; biotin-RNA pull-down from cell lysates; details: protein: recombinant; tags: N-terminal HA; label: biotin; predicted loop
T1 sequence: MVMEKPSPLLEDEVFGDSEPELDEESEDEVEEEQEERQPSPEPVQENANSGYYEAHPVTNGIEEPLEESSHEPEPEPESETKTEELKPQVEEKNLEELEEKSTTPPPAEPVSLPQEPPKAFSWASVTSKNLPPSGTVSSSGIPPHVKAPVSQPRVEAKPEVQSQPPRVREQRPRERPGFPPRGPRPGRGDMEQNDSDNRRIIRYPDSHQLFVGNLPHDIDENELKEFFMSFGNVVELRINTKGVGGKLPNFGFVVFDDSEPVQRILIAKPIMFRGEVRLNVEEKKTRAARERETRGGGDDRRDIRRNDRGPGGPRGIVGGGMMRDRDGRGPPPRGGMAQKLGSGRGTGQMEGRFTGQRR

[2] = target: T2, HA-G3BP2 full length (UniProt Q9UN86 1-482); assay: as above; details: protein: recombinant; tags: N-terminal HA; chain copies: 2; label: biotin; predicted loop
T2 sequence: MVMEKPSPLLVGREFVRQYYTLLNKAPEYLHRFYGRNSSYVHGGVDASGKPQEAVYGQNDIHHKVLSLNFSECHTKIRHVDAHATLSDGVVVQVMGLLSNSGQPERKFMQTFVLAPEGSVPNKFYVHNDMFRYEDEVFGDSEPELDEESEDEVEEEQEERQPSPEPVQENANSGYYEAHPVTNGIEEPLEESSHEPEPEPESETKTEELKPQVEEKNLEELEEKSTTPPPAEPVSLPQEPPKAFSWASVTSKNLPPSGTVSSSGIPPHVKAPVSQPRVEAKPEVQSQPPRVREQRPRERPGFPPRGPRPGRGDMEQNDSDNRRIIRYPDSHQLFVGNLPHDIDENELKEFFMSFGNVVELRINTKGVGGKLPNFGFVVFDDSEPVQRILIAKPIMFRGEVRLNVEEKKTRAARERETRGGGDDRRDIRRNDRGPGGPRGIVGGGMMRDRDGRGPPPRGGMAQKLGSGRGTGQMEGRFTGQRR

UUGACUGCAGAUCAAGAGGUCCCCGGU (ssRNA) [tRF-27 (tRF-27-ZDXPHO53KSN)]: no binding [1]; binds [2].
